According to article PMC2646144:

Legend:
[1] = biological target: M3-protein heterologously expressed on the surface of S. gordonii GP1221 (SGO M3) (S. pyogenes | not stated); test: radioligand binding; about 14 ng 125I-CIV or 125I-CB3 added to 250 µl bacterial suspension (S. gordonii expressing M3), room temperature 45 min, pellet-associated radioactivity as percentage of input
[2] = biological target: Collagen type IV from human placenta, full length (human) (UniProt P02462); test: SPR; BIAcore 2000, CIV or CB3 immobilised on CM5 chip by amine coupling, M3-protein injected at 6.25-50 µg/ml, 10 mM HEPES, 100 mM NaCl, pH 7.4; apparent dissociation constants

Cyanogen bromide fragment 3 (CB3) of collagen type IV (domain or fragment)
percent of the 125I-labeled ligand bound [1]: > 80%

Collagen type IV from human placenta, full length (from UniProt P02462 28-1669; P08572 26-1712) (complex)
percent of the 125I-labeled ligand bound [1]: > 80%

GST-M3-protein (recombinant streptococcal M-protein type 3) (natural protein)
Kd [2]: 5 nM
